This assay addresses T1, FcεRIα (human, UniProt P12319 26-201).
T1 chain: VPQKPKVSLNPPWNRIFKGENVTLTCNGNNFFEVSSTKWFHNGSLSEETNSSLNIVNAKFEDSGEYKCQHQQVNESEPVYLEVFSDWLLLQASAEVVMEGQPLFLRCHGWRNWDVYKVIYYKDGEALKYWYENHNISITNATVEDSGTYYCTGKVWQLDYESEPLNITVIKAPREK
The experiment in a line: SPR; mammalian derived. Background: In SPR one partner is held on a chip, and binding of the other changes the refractive index at the surface.

B1: IgE-R419N-Fc3-4 (other)
chain: CADSNPRGVSAYLSRPSPFDLFIRKSPTITCLVVDLAPSKGTVNLTWSRASGKPVNHSTRKEEKQRNGTLTVTSTLPVGTRDWIEGETYQCNVTHPHLPRALMRSTTKTSGPRAAPEVYAFATPEWPGSRDKRTLACLIQNFMPEDISVQWLHNEVQLPDARHSTTQPRKTKGSGFFVFSRLEVTRAEWEQKDEFICRAVHEAASPSQTVQRAVSVNP
modifications: additional N-linked glycan at N419 (Asn-92 of SEQ ID NO: 2)
With B1, the Kd is 2.26 nM.

Broadly, the Kd is the free concentration of one partner at which half of the binding sites on the other are occupied at equilibrium, for simple one-to-one binding. Read a high Kd as weaker binding.

Source of the values: patent publication US20180273626A1 (published 2018).
